Measurements as given in patent US20140341938A1.

Target: SIINFEKL:K^b complex (SIINFEKL complexed to H-2K^b) on LK^b cells (murine) (UniProt P01901)
Experiment: cell-based or functional assay

Sequence of UniProt P01901 (P01901 22-369, one chain of several): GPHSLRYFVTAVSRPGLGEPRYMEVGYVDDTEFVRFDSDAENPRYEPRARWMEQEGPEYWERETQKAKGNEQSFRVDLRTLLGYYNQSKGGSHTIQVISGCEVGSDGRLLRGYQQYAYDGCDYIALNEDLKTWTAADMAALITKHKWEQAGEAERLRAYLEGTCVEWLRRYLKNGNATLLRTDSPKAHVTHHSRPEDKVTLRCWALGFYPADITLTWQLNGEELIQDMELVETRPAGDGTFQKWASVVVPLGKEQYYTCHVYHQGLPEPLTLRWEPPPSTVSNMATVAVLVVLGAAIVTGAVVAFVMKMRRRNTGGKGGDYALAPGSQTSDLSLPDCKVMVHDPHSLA

In the case of “T cell receptor of the SIINFEKL:Kb-specific T hybridoma B3Z (TCR)”, the β-galactosidase measured with a luminescent substrate after overnight co-incubation of SIINFEKL-pulsed LK^b cells with B3Z; limit of detection given as the peptide pulse concentration is reported as 5 ng/mL.
